From patent publication US20240417446A1

Assays:
[1] = biological target: SARS-CoV-2 Beta variant spike protein on pseudovirus (SARS-CoV-2), P0DTC2; experiment: cell-based or functional assay
[2] = biological target: SARS-CoV-2 Delta variant spike protein on pseudovirus (SARS-CoV-2), P0DTC2; experiment: cell-based or functional assay

B1: NCI-CoV-S2A9 (VNAR)
chain: ARVDQTPRSVTKETGESLTINCVLRDASYALGRTCWYRKKSGSTNEESISKGGRYVETVNSGSKSFSLRINDLTVEDGGTYRCGVSTPWSCDYGPLCFYAACGDGTVVTVN
- IC50 for neutralizing pseudovirus [1]: 2220 nM
- IC50 for neutralizing pseudovirus [2]: 1880 nM
